As usually defined, the EC50 is the concentration at which the effect is half-maximal. As usually defined, the Kd is the constant that tells how readily two partners part at equilibrium. By koff is commonly meant a measure of how fast the partners let go of each other. As usually defined, the kon is the rate constant with which the complex forms. By IC50 is commonly meant the concentration that gives 50% inhibition.

Test [1] addresses T1, recombinant human BTLA expressed at the cell surface of CHO cells (human, UniProt Q7Z6A9 31-289).
T1 construct: also called BTLA-CHO cells; BTLA CHO cells
The experiment in a line: flow cytometry on BTLA-transfected CHO cells, PE anti-human IgG detection, MFI against log nM IgG. As for the experimental part:
Chinese hamster ovary (CHO) cell lines that express recombinant human BTLA at the cell surface were developed and used to determine the specificity of BTLA human monoclonal antibodies by flow cytometry. CHO cells were transfected with expression plasmids containing full length cDNA encoding transmembrane forms of BTLA. Binding of the anti-BTLA human monoclonal antibodies was assessed by incubating the transfected cells with the anti-BTLA human monoclonal antibodies at a concentration from 0.01 nM to 66 nM. The antibodies were incubated with 10⁵ BTLA CHO cells for 60 minutes at 4° C. in PBS1% BSA. […] The EC₅₀ was determined graphically by plotting the mean flourescence intensity (MFI) versus the log of the antibody concentration using Prism graphing software (GraphPad software). Flow cytometric analyses were performed using a FACSArray flow cytometry (Becton Dickinson, San Jose, Calif.). The results are depicted in FIG. 28A.
On the technique in general: In flow cytometry, cells or beads pass a laser one at a time.

The target in test [2] is T2, recombinant human BTLA fusion protein (human, UniProt Q7Z6A9 31-156).
T2 construct: also called BTLA-Ig; BTLA Ig antigen; not shown: Ig fusion partner
The experiment in a line: Biacore 3000, antibody captured by anti-CH1, BTLA fusion protein 200 nM in solution. As for the experimental part:
The binding of the 1B4, E4H9, 3C2, 6A5, 11E2 and 10116 antibodies to recombinant BTLA protein was examined by BIAcore™ using an antibody capture method. Each of the six anti-BTLA monoclonal antibodies were captured using anti-CH1, a reagent antibody that is specific towards the heavy chain constant region 1 of human antibody (Zymed, Clone HP6045, Stock conc. 1.0 mg/mL). Anti-CH1 was coated on a CM5 chip (BR-1000-14, Research Grade) at high density (6200-7960 RUs). The coating was carried out based on the standard immobilization procedure recommended by the manufacturer. The 1B4, E4H9, 3C2, 6A5, 11E2 and 10116 purified antibodies, with concentrations ranging from 1-10 μg/mL, were each then captured on the anti-CH1 coated chip surface at a flow-rate of 10 μl/min for 0.5-1 minute. A single concentration of recombinant human BTLA fusion protein (200 nM) was injected over captured antibody for 4 minutes at a flow rate of […]. The antigen was allowed to dissociate for 10 minutes. The chip surface was regenerated after each cycle with 10 μL of 30 mM NaOH, followed by 30 μl of HBS EP wash. Isotype controls were run on the chip, and the data used to subtract non-specific binding. All the experiments were carried out on a Biacore 3000 surface plasmon resonance instrument, using BIAcore Control software v 3.2. Data analysis was carried out using BiaEvaluation v3.2 software.

In test [3] the target is T1, recombinant human BTLA expressed at the …. In words: FACS blocking assay: antibody pre-incubated with BTLA-CHO cells, then 0.5 ug/ml biotin HVEM Ig, streptavidin-PE detection. As for the experimental part: The ability of BTLA Mabs to block binding of BTLA to HVEM was also determined by FACS, and is expressed as the concentration of anti-BTLA IgG to block half the maximal binding of HVEM Ig to 10⁵ BTLA CHO cells (IC₅₀). BTLA CHO cells and antibody at various concentrations were pre-incubated for 30 minutes at 4° C., and then 0.5 ug/ml biotin labeled HVEM Ig (R & D Systems BAF 356) was added to the BTLA CHO-IgG mix and incubated for another 30 minutes. Cells were washed 2× in PBS-1% BSA, and binding of biotin HVEM Ig was detected by FACS after staining the cells with streptavidin-PE (BD Parmingen 3554061). IC₅₀ values were determined graphically using the Prism software (GraphPad Software). Results are depicted in FIG. 28B and FIG. 28C.

Test [4] concerns the target T3, CD28-Ig (human, UniProt P10747).
T3 construct: extracellular domain
The experiment in a line: ELISA, plate coated with receptor-Ig fusion, antibody at 1 ug/mL, HRP-conjugated detection antibody. As for the experimental part: (§1) ELISA plates were coated overnight with fusion proteins consisting of the extracellular domains of a panel of CD28 receptor family molecules fused to the Fc portion of human IgG (Table 4). The plates were washed and blocked to minimize non-specific binding. A panel of anti-BTLA antibodies and isotype control antibodies (Table 5), and positive control detection antibodies (Table 3), all diluted to 1 ug/mL, were added in duplicate to the assay plates for one hour. After extensive washing the appropriate HRP-conjugated detection antibodies were added to the plates for one hour followed by washing and development using 3, 3′, 5, 5′-tetramethylbenzidine (TMB) as substrate. Optical density measurements at 650 nm were recorded.
(In general: An ELISA detects its analyte on a solid surface through an enzyme-linked reagent.)

Test [5] addresses T4, TrkB-Ig (human, UniProt Q16620).
T4 construct: extracellular domain
The description is as above. As for the experimental part:
as §1

In test [6] the target is T5, ICOS-Ig (human, UniProt Q9Y6W8).
T5 construct: extracellular domain
T5 sequence (fusion chain, looked up): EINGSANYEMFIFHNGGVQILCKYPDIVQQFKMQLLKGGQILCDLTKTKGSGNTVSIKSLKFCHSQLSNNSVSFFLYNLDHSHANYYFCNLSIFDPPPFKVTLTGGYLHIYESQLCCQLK
Described as above. As for the experimental part:
as §1

Test [7] concerns the target PD1-Ig. Described as above. As for the experimental part:
as §1

Test [8] has as its target T6, CTLA4-Ig (human, UniProt P16410).
T6 construct: extracellular domain
Described as above. As for the experimental part: as §1

Test [9] concerns the target T2, recombinant human BTLA fusion protein. In words: Biacore, BTLA fusion protein coupled to CM5 chip, antibody flowed at 267 nM. As for the experimental part: Anti-BTLA antibodies were characterized for affinities and binding kinetics by Biacore analysis (Biacore AB, Uppsala, Sweden). Purified recombinant human BTLA fusion protein was covalently linked to a CM5 chip (carboxy methyl dextran coated chip) via primary amines, using standard amine coupling chemistry and kit provided by Biacore. Binding was measured by flowing the antibodies in HBS EP buffer (provided by Biacore AB) at a concentration of 267 nM at a flow rate of 50 μl/min. The antigen-antibody association kinetics was followed for 3 minutes and the dissociation kinetics was followed for 7 minutes. The association and dissociation curves were fit to a 1:1 Langmuir binding model using BIAevaluation software (Biacore AB). To minimize the effects of avidity in the estimation of the binding constants, only the initial segment of data corresponding to association and dissociation phases were used for fitting.
For orientation: Surface plasmon resonance follows binding to a sensor surface in real time, without labels.

T1 sequence (Q7Z6A9 31-289 R157S limits assumed): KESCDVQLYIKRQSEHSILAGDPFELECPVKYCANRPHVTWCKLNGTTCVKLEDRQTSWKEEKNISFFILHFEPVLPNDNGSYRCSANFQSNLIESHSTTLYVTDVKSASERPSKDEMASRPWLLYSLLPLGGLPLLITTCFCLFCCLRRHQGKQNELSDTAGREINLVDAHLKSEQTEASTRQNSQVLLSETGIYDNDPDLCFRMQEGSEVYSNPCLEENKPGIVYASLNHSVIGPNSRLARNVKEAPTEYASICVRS
Sequence of PD1-Ig (chain, as listed by the source limits assumed): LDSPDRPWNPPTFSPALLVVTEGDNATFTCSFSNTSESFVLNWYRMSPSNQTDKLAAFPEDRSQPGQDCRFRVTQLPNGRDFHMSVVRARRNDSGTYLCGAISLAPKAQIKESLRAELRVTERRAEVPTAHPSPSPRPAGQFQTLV
T2 sequence (Q7Z6A9 other isoform, or with tags, fused parts or gaps): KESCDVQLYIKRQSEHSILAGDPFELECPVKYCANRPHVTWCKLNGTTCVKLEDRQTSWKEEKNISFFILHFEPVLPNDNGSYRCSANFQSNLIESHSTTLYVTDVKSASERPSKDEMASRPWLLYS
T6 sequence (P16410 36-161): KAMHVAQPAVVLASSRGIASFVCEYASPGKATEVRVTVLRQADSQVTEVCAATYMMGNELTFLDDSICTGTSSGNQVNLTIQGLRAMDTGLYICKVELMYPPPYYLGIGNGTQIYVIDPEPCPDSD

B1: 10H6 human monoclonal antibody (antibody, V domains shown)
VH: QVQLVESGGGVVQPGRSLRLSCAASGFTFSSYDMHWVRQAPGKGLEWVAAIWNDGSNKYYADSVKGRFTISRDNSKNTLYLQMNSLRAEDTAVYYCARDRITMVRGVITQYYGMDVWGQGTTVTVSS
VL: DIQLTQSPSSLSASVGDRVTITCRVSQGISSYLNWYRQKPGKVPKLLIYSASNLQSGVPSRFSGSGSGTDFTLTISSLQPEDVATYYGQRTYNAPYTFGQGTKLEIK
With B1, the EC50 in test [1] worked out at 1.89 nM. Besides, in [2], the dissociation constant (Kd) was 3.82 nM, the koff turned out to be 0.000153 s⁻¹ and the kon turned out to be 40000 M⁻¹ s⁻¹. Besides, in [3], the 50% inhibitory concentration (IC50) came out at 2.13 nM.

B2: 3C2 human monoclonal antibody (antibody, IgG1, V domains shown)
VH: QVQLQESGPGLVKPSETLSLTCTISGGSISNYYWNWIRQPPGKGLEWIGYIYYSTSTKYNPSLKSRVTMSVETSKNQFSLKLSSVTAADTAVYYCARVKVYSTGWFFDYWGQGTLVTVSS
VL: AIQLTQSPSSLSASVGDRVTITCRASQGISSALAWYQQKPGKAPKLLIYDASSLESGVPSRFSGSGSGTDFTLTISSLQPEDFATYYCQQFNSYPLTFGGGTKVEIK
For B2, the binding result in test [4], in test [5], in test [6], in [7] and in [8] was “no binding (tested: 1 ug/mL)” in each case. Further, the values for the dissociation constant (Kd) in test [9] and in [2] were 0.88 nM and 6.65 nM, respectively. The EC50 in test [1] amounted to 1.78 nM. For the same molecule, in test [2], the koff was 0.000301 s⁻¹. In addition, in test [2], the kon amounted to 45200 M⁻¹ s⁻¹. Further, the concentration for half-maximal inhibition (IC50) in test [3] worked out at 1.97 nM.

B3: 11E2 human monoclonal antibody (antibody, IgG1, V domains shown)
VH: EVQLVESGGGVIRPGGSLRLSCAASGFTFDDYGMSWVRQAPGKGLEWVSGINWNGGSTGYAASVKGRFTISRDNAKNSLYLQMNSLRAEDSALYYCARDYYYGPGSPNYFYYAMDVWGQGTTVTVSS
VL: DIQMTQSPSSLSASVGDRVTITCRASQGISSWLAWYQQKPEKAPKSLIYAASSLQSGVPSRFSGSGSGTDFTLTISSLQPEDFATYYCQQYNSYPRTFGQGTKVEIK
notes: kappa light chain (VK L15)
On to B3, for which the binding result in [4], in test [5], in [6], in [7] and in test [8] was “no binding (tested: 1 ug/mL)” each time. The dissociation constant Kd in [9] is 0.61 nM. Moreover, in [1], the EC50 came out at 3.25 nM. Moreover, the IC50 in test [3] turned out to be 2.73 nM.

B4: 1B4 human monoclonal antibody (antibody, IgG1, V domains shown)
VH: QITLKESGPTLVKPTQTLTLTCTFSGFSLNTIGVGVNWIRQPPGKALEWLALIYWDDDKRYSPSLKRRLTISKDTSKNQVVLTMTNMDPVDTATYYCAHSGITEVRGVIIHYYGMDVWGQGTTVTVSS
VL: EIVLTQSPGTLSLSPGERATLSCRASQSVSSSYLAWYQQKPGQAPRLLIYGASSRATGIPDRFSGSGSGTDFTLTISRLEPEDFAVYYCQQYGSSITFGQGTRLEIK
notes: human antibody purified from hybridoma, kappa light chain (VK A27)
For the molecule B4, the binding result in test [5], in [7] and in [8] was “no binding (tested: 1 ug/mL)” throughout. The Kd in [9] stood at 2.88 nM; in test [2], 5.74 nM. Further, the EC50 in test [1] was 1.34 nM. Besides, the koff in test [2] came to 0.000284 s⁻¹. For the same molecule, in test [2], the kon is 49400 M⁻¹ s⁻¹. The IC50 in test [3] is 1.9 nM.

B5: 6A5 human monoclonal antibody (antibody, V domains shown)
VH: QITLKESGPTLVKPTQTLTLTCTFSGFSLSTSGVGVGWIRQPPGKALEWLALIYWDDDKRYSPSLKSRLTITKDTSKNQVVLTMANMDPVDTATYYCAHIRITEVRGVIISYYGMDVWGQGTTVTVSS
VL: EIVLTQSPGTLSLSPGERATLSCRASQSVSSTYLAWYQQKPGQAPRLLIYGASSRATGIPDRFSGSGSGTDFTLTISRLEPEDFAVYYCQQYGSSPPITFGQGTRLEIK
notes: kappa light chain (VK A27)
As for B5, the binding result in test [5], in test [7] and in test [8] was “no binding (tested: 1 ug/mL)” in each case.

B6: 11-E8D9 (antibody, V domains shown)
VH: QITLKESGPTLVKPTQTLTLTCTFSGFSLSTSGVGVGWIRQPPGKALEWLALIYWDDDKRYSPSLKSRLTITKDTSKNQVVLTMTNMDPVDTATYYCAHTSITEVRGAIIYYYGMDVWGQGTTVTVSS
VL: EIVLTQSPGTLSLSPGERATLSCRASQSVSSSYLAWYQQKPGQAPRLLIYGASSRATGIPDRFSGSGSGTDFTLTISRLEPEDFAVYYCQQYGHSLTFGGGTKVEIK
notes: also called 11E8D9.3; E8D9 human monoclonal antibody
Turning to B6, the binding result in [5], in test [7] and in test [8] was “no binding (tested: 1 ug/mL)” in each case. Also, in test [1], the EC50 amounted to 0.373 nM. The IC50 in [3] was found to be 0.34 nM.

B7: 11-4C9 (antibody, V domains shown)
VH: QITLKESGPTLVKPTQTLTLTCTFSGFSLSTSGVGVAWIRQPPGKALEWLALIYWDDDKRYSPSLKSRLTITKDTSKNQVVLTMSNMDPVDTATYYCAHTRIAEVRGVIYYYYGIDVWGQGTTVTVSS
VL: EIVLTQSPGTLSLSPGERATLSCRASQSVSSTYLVWYQQKPGQAPRLLIYGASSRATGIPDRFSGSGSGTDFTLTISRLEPEDFAVYYCQQYGSSWTFGQGTKVEIK
notes: The prefix 11- appears only on the sheets; also called 4C9 human monoclonal antibody
For the molecule B7, the EC50 in [1] turned out to be 1.56 nM. In [3], the IC50 stood at 1.02 nM.

B8: E4H9 human monoclonal antibody (antibody, V domains shown)
VH: QVTLRESGPALVKPTQTLTLTCTFSGFSLSTSGMCVSWIRQPPGKALEWLALIDWDDVKYYSSSLKTRLTISKDTSKNQVVLTMTDMDPVDTATYYCARIRFTMFRGVYYYYYGLDVWGQGTTVTVSS
VL: not shown
notes: kappa light chain (VK A27)
For the molecule B8, the binding result in test [5], in test [7] and in [8] was “no binding (tested: 1 ug/mL)” each time. Further, the Kd was 0.13 nM in test [9] and 0.006 nM in test [2]. The EC50 in [1] stood at 1.55 nM. Moreover, in test [2], the koff stood at 3e-07 s⁻¹. Moreover, in [2], the kon came to 45700 M⁻¹ s⁻¹. The IC50 in [3] is 1.05 nM.

Values taken from patent publication US20100172900A1 (Bristol-Myers Squibb, published 2010).
